Measured values: patent US20150274841A1 (DYAX, published 2015)

Biological target: T1, human plasma kallikrein (PKal) (human, UniProt P03952 20-638)
T1 construct: Active PKal is cleaved at the marked R/I site into two disulfide-linked chains; also called human Pkal; active PKal
Test: Ki,app; Fab inhibition of PKal cleavage of a substrate peptide, Morrison fit
Procedure: Briefly, PKal and a Fab at various concentrations are incubated together for 1 hour at 30° C. A substrate peptide (cleavable by PKal) is then added to this PKal-Fab mixture. The rate of substrate peptide cleavage/proteolysis is then measured, and plotted against the concentrations of the Fab. This plot is then fit to the Morrison equation, which calculates the K_{i,app} value. The results thus obtained are shown in FIGS. 5A-5D and Table 3 below: […]

T1 sequence (P03952 20-638 limits assumed): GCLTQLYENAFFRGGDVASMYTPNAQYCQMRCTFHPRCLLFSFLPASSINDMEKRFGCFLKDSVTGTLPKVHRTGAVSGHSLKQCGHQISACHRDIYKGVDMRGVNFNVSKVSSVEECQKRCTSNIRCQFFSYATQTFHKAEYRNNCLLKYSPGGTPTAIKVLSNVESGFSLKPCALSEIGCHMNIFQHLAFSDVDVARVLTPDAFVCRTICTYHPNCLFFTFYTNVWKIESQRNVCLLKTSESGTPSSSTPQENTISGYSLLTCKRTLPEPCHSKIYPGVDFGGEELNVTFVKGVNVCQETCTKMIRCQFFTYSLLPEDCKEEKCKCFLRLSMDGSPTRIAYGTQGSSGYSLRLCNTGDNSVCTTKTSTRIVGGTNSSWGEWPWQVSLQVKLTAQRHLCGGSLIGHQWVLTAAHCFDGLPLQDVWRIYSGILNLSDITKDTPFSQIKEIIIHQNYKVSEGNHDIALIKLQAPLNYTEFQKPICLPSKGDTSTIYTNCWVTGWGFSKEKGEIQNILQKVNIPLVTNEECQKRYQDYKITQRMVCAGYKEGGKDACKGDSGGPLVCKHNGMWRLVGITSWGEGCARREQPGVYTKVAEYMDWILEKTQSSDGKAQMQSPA

Binder | Ki
M0200-A10 (Fab, V domains shown, HC CDR3 variant of M0162-A04, tested as Fab) VH: EVQLLESGGGLVQPGGSLRLSCAASGFTFSHYIMMWVRQAPGKGLEWVSGIYSSGGITVYADSVKGRFTISRDNSKNTLYLQMNSLRAEDTAVYYCAYRRTGVPRRDSFDIWGQGTMVTVSS VL: DIQMTQSPSTLSASVGDRVTITCRASQSISSWLAWYQQKPGKAPNLLIYKASTLESGVPSRFSGSGSGTEFTLTISSLQPDDFATYYCQQYNTYWTFGQGTKVEIK | 0.25 nM
M0200-E11 (Fab, V domains shown, HC CDR3 variant of M0162-A04, tested as Fab) VH: EVQLLESGGGLVQPGGSLRLSCAASGFTFSHYIMMWVRQAPGKGLEWVSGIYSSGGITVYADSVKGRFTISRDNSKNTLYLQMNSLRAEDTAVYYCAYRRTGVPRRDAFDNWGQGTMVTVSS VL: DIQMTQSPSTLSASVGDRVTITCRASQSISSWLAWYQQKPGKAPNLLIYKASTLESGVPSRFSGSGSGTEFTLTISSLQPDDFATYYCQQYNTYWTFGQGTKVEIK | 0.4 nM
M0200-H07 (Fab, V domains shown, HC CDR3 variant of M0162-A04, tested as Fab) VH: EVQLLESGGGLVQPGGSLRLSCAASGFTFSHYIMMWVRQAPGKGLEWVSGIYSSGGITVYADSVKGRFTISRDNSKNTLYLQMNSLRAEDTAVYYCAYRRTGVPRRNAFDNWGQGTMVTVSS VL: DIQMTQSPSTLSASVGDRVTITCRASQSISSWLAWYQQKPGKAPNLLIYKASTLESGVPSRFSGSGSGTEFTLTISSLQPDDFATYYCQQYNTYWTFGQGTKVEIK | 0.4 nM
M0201-A06 (Fab, V domains shown, HC CDR3 variant of M0162-A04, tested as Fab) VH: EVQLLESGGGLVQPGGSLRLSCAASGFTFSHYIMMWVRQAPGKGLEWVSGIYSSGGITVYADSVKGRFTISRDNSKNTLYLQMNSLRAEDTAVYYCAYRRTGIPRRDVFDIWGQGTMVTVSS VL: DIQMTQSPSTLSASVGDRVTITCRASQSISSWLAWYQQKPGKAPNLLIYKASTLESGVPSRFSGSGSGTEFTLTISSLQPDDFATYYCQQYNTYWTFGQGTKVEIK | 3.8 nM
M0201-H08 (Fab, V domains shown, HC CDR3 variant of M0162-A04, tested as Fab) VH: EVQLLESGGGLVQPGGSLRLSCAASGFTFSHYIMMWVRQAPGKGLEWVSGIYSSGGITVYADSVKGRFTISRDNSKNTLYLQMNSLRAEDTAVYYCAYRRTGVPRRDALDNWGQGTMVTVSS VL: DIQMTQSPSTLSASVGDRVTITCRASQSISSWLAWYQQKPGKAPNLLIYKASTLESGVPSRFSGSGSGTEFTLTISSLQPDDFATYYCQQYNTYWTFGQGTKVEIK | 0.8 nM
M0202-A01 (Fab, V domains shown, HC CDR3 variant of M0162-A04, tested as Fab) VH: EVQLLESGGGLVQPGGSLRLSCAASGFTFSHYIMMWVRQAPGKGLEWVSGIYSSGGITVYADSVKGRFTISRDNSKNTLYLQMNSLRAEDTAVYYCAYRRIGVPRRDAFDIWGQGTMVTVSS VL: DIQMTQSPSTLSASVGDRVTITCRASQSISSWLAWYQQKPGKAPNLLIYKASTLESGVPSRFSGSGSGTEFTLTISSLQPDDFATYYCQQYNTYWTFGQGTKVEIK | 0.3 nM
M0202-Al2 (Fab, V domains shown, HC CDR3 variant of M0162-A04, tested as Fab; also called M0202-A12 (probable reading)) VH: EVQLLESGGGLVQPGGSLRLSCAASGFTFSHYIMMWVRQAPGKGLEWVSGIYSSGGITVYADSVKGRFTISRDNSKNTLYLQMNSLRAEDTAVYYCAYQRTGVPRRDSFNIWGQGTMVTVSS VL: DIQMTQSPSTLSASVGDRVTITCRASQSISSWLAWYQQKPGKAPNLLIYKASTLESGVPSRFSGSGSGTEFTLTISSLQPDDFATYYCQQYNTYWTFGQGTKVEIK | 0.1 nM
M0202-F06 (Fab, V domains shown, HC CDR3 variant of M0162-A04, tested as Fab) VH: EVQLLESGGGLVQPGGSLRLSCAASGFTFSHYIMMWVRQAPGKGLEWVSGIYSSGGITVYADSVKGRFTISRDNSKNTLYLQMNSLRAEDTAVYYCAYRRTGVPRWDAFDIWGQGTMVTVSS VL: DIQMTQSPSTLSASVGDRVTITCRASQSISSWLAWYQQKPGKAPNLLIYKASTLESGVPSRFSGSGSGTEFTLTISSLQPDDFATYYCQQYNTYWTFGQGTKVEIK | 0.33 nM
M0202-G03 (Fab, V domains shown, HC CDR3 variant of M0162-A04, tested as Fab) VH: EVQLLESGGGLVQPGGSLRLSCAASGFTFSHYIMMWVRQAPGKGLEWVSGIYSSGGITVYADSVKGRFTISRDNSKNTLYLQMNSLRAEDTAVYYCAYRRTGVPRRDSFEIWGQGTMVTVSS VL: DIQMTQSPSTLSASVGDRVTITCRASQSISSWLAWYQQKPGKAPNLLIYKASTLESGVPSRFSGSGSGTEFTLTISSLQPDDFATYYCQQYNTYWTFGQGTKVEIK | 0.4 nM
M0202-H05 (Fab, V domains shown, HC CDR3 variant of M0162-A04, tested as Fab) VH: EVQLLESGGGLVQPGGSLRLSCAASGFTFSHYIMMWVRQAPGKGLEWVSGIYSSGGITVYADSVKGRFTISRDNSKNTLYLQMNSLRAEDTAVYYCAYRRTGVPRRDVFDIWGQGTMVTVSS VL: DIQMTQSPSTLSASVGDRVTITCRASQSISSWLAWYQQKPGKAPNLLIYKASTLESGVPSRFSGSGSGTEFTLTISSLQPDDFATYYCQQYNTYWTFGQGTKVEIK | 0.26 nM
M0201-H06 (Fab, V domains shown) VH: EVQLLESGGGLVQPGGSLRLSCAASGFTFSHYIMMWVRQAPGKGLEWVSGIYSSGGITVYADSVKGRFTISRDNSKNTLYLQMNSLRAEDTAVYYCAYRRTGVPRRDAFDIWGQGTMVTVSS VL: DIQMTQSPSTLSASVGDRVTITCRASQSISSWLAWYQQKPGKAPNLLIYKASTLESGVPSRFSGSGSGTEFTLTISSLQPDDFATYYCQQYNTYWTFGQGTKVEIK | 0.6 nM
M0202-H03 (Fab, V domains shown) VH: EVQLLESGGGLVQPGGSLRLSCAASGFTFSHYIMMWVRQAPGKGLEWVSGIYSSGGITVYADSVKGRFTISRDNSKNTLYLQMNSLRAEDTAVYYCAYRRTGVPRWDDFDIWGQGTMVTVSS VL: DIQMTQSPSTLSASVGDRVTITCRASQSISSWLAWYQQKPGKAPNLLIYKASTLESGVPSRFSGSGSGTEFTLTISSLQPDDFATYYCQQYNTYWTFGQGTKVEIK | 0.1 nM
M0201-A07 (Fab, V domains shown) VH: EVQLLESGGGLVQPGGSLRLSCAASGFTFSHYIMMWVRQAPGKGLEWVSGIYSSGGITVYADSVKGRFTISRDNSKNTLYLQMNSLRAEDTAVYYCAYRRTGVPRRDEFDIWGQGTMVTVSS VL: DIQMTQSPSTLSASVGDRVTITCRASQSISSWLAWYQQKPGKAPNLLIYKASTLESGVPSRFSGSGSGTEFTLTISSLQPDDFATYYCQQYNTYWTFGQGTKVEIK | 0.1 nM
M0202-C02 (Fab, V domains shown) VH: EVQLLESGGGLVQPGGSLRLSCAASGFTFSHYIMMWVRQAPGKGLEWVSGIYSSGGITVYADSVKGRFTISRDNSKNTLYLQMNSLRAEDTAVYYCAYRRPGVPRRDAFDIWGQGTMVTVSS VL: DIQMTQSPSTLSASVGDRVTITCRASQSISSWLAWYQQKPGKAPNLLIYKASTLESGVPSRFSGSGSGTEFTLTISSLQPDDFATYYCQQYNTYWTFGQGTKVEIK | 0.6 nM
M0202-B04 (Fab, V domains shown) VH: EVQLLESGGGLVQPGGSLRLSCAASGFTFSHYIMMWVRQAPGKGLEWVSGIYSSGGITVYADSVKGRFTISRDNSKNTLYLQMNSLRAEDTAVYYCAYRRSGVPRRDAFDIWGQGTMVTVSS VL: DIQMTQSPSTLSASVGDRVTITCRASQSISSWLAWYQQKPGKAPNLLIYKASTLESGVPSRFSGSGSGTEFTLTISSLQPDDFATYYCQQYNTYWTFGQGTKVEIK | 0.2 nM
M0202-E06 (Fab, V domains shown) VH: EVQLLESGGGLVQPGGSLRLSCAASGFTFSHYIMMWVRQAPGKGLEWVSGIYSSGGITVYADSVKGRFTISRDNSKNTLYLQMNSLRAEDTAVYYCAYRRRGVPRRDDFDIWGQGTMVTVSS VL: DIQMTQSPSTLSASVGDRVTITCRASQSISSWLAWYQQKPGKAPNLLIYKASTLESGVPSRFSGSGSGTEFTLTISSLQPDDFATYYCQQYNTYWTFGQGTKVEIK | 0.06 nM
